Assay results as given in the supplement of paper PMC10126150.
± gives the standard deviation of the averaged measurements.

tested on: ATP; test: switch fluorescence ratio, 500 uM ATP over buffer (Cy3 cluster intensity, sum of 5 cycles each) (fold (ratio)); higher = stronger signal-on switching upon ATP binding; sequences stand for … in TCGTCGGCAGCGTCAGATGTGTATAAGAGACAGTTTTTTTTTTTTTTTTTTTTTTTTT…TC; conditions: aptamer strand: ATP DNA aptamer (quencher-CACCTGGGGGAGTATTGCGGAGGAAGG + anchor), 100 nM annealed; ATP concentration: 500 uM
Summary of the method: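 Clusters carrying Cy3-labelled switching strands on a modified Illumina MiSeq flow-cell were annealed to 100 nM quencher-labelled ATP aptamer and imaged in selection buffer. They were imaged again after 15 min with 500 uM ATP at 22 °C, over five buffer/ATP cycles with NaOH stripping and re-annealing in between. For each cluster, the fluorescence ratio is the summed Cy3 intensity of the target cycles divided by that of the buffer cycles, averaged per switch-domain sequence. Clusters outside 100-1000 RFU were left out.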
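Note: ATP exposure 15 min at 22 °C before imaging.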

Sequence | switch fluorescence ratio
GCTCCCTTTC | 1.84 ± 0.08
ATAAATAAAA | 0.984 ± 0.036
GACGGGGAAG | 1.08 ± 0.069
CAGTTTTTTA | 0.983 ± 0.016
ATGCTATAGT | 1.021 ± 0.0025
ATCTTTCGAA | 1.03 ± 0.026
CCAAATGGTG | 1.16 ± 0.021
CAAAGTTGCG | 0.984 ± 0.017
CTTATTTGGG | 0.997 ± 0.031
AGTGTGCTGG | 1.01 ± 0.043
CTCGCTCGGT | 1.01 ± 0.019
TATGGCGGGT | 1 ± 0.014
TCGAAAAATT | 0.975 ± 0.048
CGGGAAAACG | 0.995 ± 0.012
GAAATACCTT | 0.976 ± 0.0021
TGGAGGTGTG | 0.977 ± 0.01
CCGGATCGCG | 1.043 ± 0.0047
TCGTCAAATT | 0.991 ± 0.067
AGTCTGGATC | 0.9959 ± 0.0084
AATTTATTTG | 1.01 ± 0.037
AAGCAGACGG | 1.05 ± 0.036
TGATAATCGG | 0.997 ± 0.036
GATTGACAGG | 1.04 ± 0.03

Sequence | switch fluorescence ratio
AGGGGTATGT | 0.989 ± 0.023
TACGAGGTTT | 0.978 ± 0.03
GTTGACCGGT | 1 ± 0.016
GGGGCTATCC | 1.01 ± 0.036
CCCTGGACGA | 1.07 ± 0.016
TGGGGAGTAA | 1.015 ± 0.0092
TTCAATTCCG | 1.03 ± 0.092
CAGAGGGTGC | 1.03 ± 0.017
ATGGTGCTGA | 1.01 ± 0.014
AATGTGTCA | 1.01 ± 0.011
TTTTTGGGTA | 0.973 ± 0.027
CAAGATTCCA | 1.016 ± 0.0077
ACATTAGTTT | 1.013 ± 0.0056
TTGCTTGAGA | 0.996 ± 0.028
TGGTTACCGA | 1 ± 0.014
TCCATAAGGG | 1.01 ± 0.023
GGTTTTTTGC | 1.01 ± 0.04
AAATGCTTTA | 1.03 ± 0.022
CATGTCTCTC | 1.02 ± 0.032
AATGGTGTAG | 1.003 ± 0.0013
GAGTCTGTGC | 1.02 ± 0.043
TTCCACGCGG | 1.268 ± 0.0091
CGTAAAGGGA | 0.987 ± 0.013

Sequence | switch fluorescence ratio
ACAGCTGTTT | 0.998 ± 0.027
TGACATGTAG | 1.01 ± 0.052
AACTGCGGTC | 1.016 ± 0.0031
TTATCAGCAC | 1.136 ± 0.0044
GTTTAACGGG | 1.03 ± 0.051
AATTTAAAAC | 1.02 ± 0.031
GGGTATTTTG | 0.997 ± 0.046
AATTATACGT | 1.05 ± 0.014
ATCGTACGGC | 1.01 ± 0.026
CAACGGGTTC | 1.03 ± 0.024
AATTTGACGT | 0.981 ± 0.034
AATTTAGGCC | 1.023 ± 0.0087
CAGGCTAGGC | 1.02 ± 0.056
CAAATAAAGG | 1.01 ± 0.025
TTTTCACTTC | 1.03 ± 0.069
TTTCTCGTAA | 1.58 ± 0.55
TTCGTACAT | 1.13 ± 0.22
GCGGGGAGCG | 1.001 ± 0.0031
TAGATAATGC | 1.075 ± 0.0049
AGATATGCGT | 1.025 ± 0.0013
TAAGTCCACC | 1.012 ± 0.01
CTAAATTCGT | 0.987 ± 0.08
TCCGGGGTGG | 1.022 ± 0.0097

Sequence | switch fluorescence ratio
TTTTGGCTGT | 1.09 ± 0.25
TGGTTTTTGC | 0.961 ± 0.057
AACGTGTTTT | 1.042 ± 0.006
AGGGTTTTAC | 1.017 ± 0.0013
TTTTTACTTT | 1.05 ± 0.17
AAGGGTGTCA | 1.022 ± 0.0032
AATGTGCTAG | 0.995 ± 0.021
GGGTGATTGA | 0.988 ± 0.021
ATAGGATCAT | 0.975 ± 0.03
ATATTGCCTA | 1.003 ± 0.0074
TGATGTAGCA | 0.979 ± 0.033
CTTGGGGCTA | 1.03 ± 0.088
TAAGGAGTGC | 0.955 ± 0.12
AATTAGACGG | 1.03 ± 0.046
CGTAAGACGT | 1.03 ± 0.044
AATTTCTGTG | 0.978 ± 0.035
TTTTGTAGCA | 1.1 ± 0.03
TAAGGGGGTG | 1.01 ± 0.023
ATTTCAGGGA | 0.978 ± 0.024
TGCTTCCCTC | 1.1 ± 0.018
TTGCAAAAAT | 1 ± 0.046
TTGAGGGGTT | 0.979 ± 0.0086
TTTGGTTGG | 1.0076 ± 0.00057

Sequence | switch fluorescence ratio
TATCGGGATG | 0.956 ± 0.03
GGTTTTGTAT | 0.993 ± 0.024
ATTAAGGGTG | 1.04 ± 0.093
ATGTGCAGGG | 1.03 ± 0.013
GGGCGTCGGT | 0.984 ± 0.015
ACAACATCCT | 1.08 ± 0.044
TTGGGGTAAC | 1.009 ± 0.01
TTGAAAGTTT | 1.01 ± 0.026
GAGTGAAGGA | 1.03 ± 0.065
AATAAAGGTT | 1.1 ± 0.18
AAAAGGGATT | 0.98 ± 0.012
ATTTCAGATA | 1.01 ± 0.02
GATAGGCGGG | 0.9795 ± 0.0094
TAAATGGGGA | 0.995 ± 0.025
TGGATTTTCA | 0.989 ± 0.03
CCCAGCAGGT | 1.9 ± 0.18
CCGTTGCTTT | 1.35 ± 0.14
GATACGTGTT | 0.998 ± 0.053
TGTGGTCTGT | 0.981 ± 0.033
TTAAAGCTGG | 0.978 ± 0.017
TATAGTCTA | 1.01 ± 0.031
CAGTGTGAGC | 1.01 ± 0.039
AAGCCAGATG | 1.076 ± 0.0092

Sequence | switch fluorescence ratio
CCGAAATTTA | 1.19 ± 0.02
TTTTTCACGG | 0.999 ± 0.034
GGACTCGCTC | 1.02 ± 0.018
TTAATTAAAG | 0.993 ± 0.017
TTGATACCTA | 1.04 ± 0.038
ACTGGCTGAG | 1.01 ± 0.024
TCGAAAATAT | 1.5 ± 1
CAGGGCCCTG | 0.995 ± 0.056
GGCCTGGTGT | 1.29 ± 0.21
GCAGTGGGGT | 1.01 ± 0.022
GGGGTTTTTG | 0.995 ± 0.029
GAGTAGTATT | 1 ± 0.02
TAGCGGCGT | 0.9938 ± 0.0097
ATCAGGGTGG | 0.987 ± 0.032
CGCGATGTAC | 3.82 ± 0.15
TTACGGCCTT | 1.06 ± 0.012
GTGGGGCAAA | 1 ± 0.043
GGGAGTGAGA | 1.03 ± 0.035
TTTCGTATTG | 0.991 ± 0.02
TAATGTTGGT | 1.025 ± 0.0014
TTATTTGCAT | 0.994 ± 0.013
CCGGGTGGG | 1.01 ± 0.062
GAACTTCTGG | 0.985 ± 0.038

Sequence | switch fluorescence ratio
ACTAAGCTTG | 1 ± 0.033
TGGGGGCGTA | 0.9641 ± 0.0025
GATGTTAAGA | 0.998 ± 0.046
GATGAGGGTG | 1.06 ± 0.015
TAGGTGGCGC | 1.08 ± 0.013
GATTTCATTT | 1.01 ± 0.04
ACACGTGGTT | 1.04 ± 0.076
GATAGTATGC | 0.961 ± 0.059
ATCGTATTCA | 1.01 ± 0.027
GATACTCGTG | 0.97 ± 0.032
CAGTAGAAAG | 1.01 ± 0.0081
TTAGGTATTA | 0.9912 ± 0.0036
ATCGAAGGCA | 0.9862 ± 0.008
AAAGCTGAAT | 0.992 ± 0.0057
CAGGGGGCTT | 1.03 ± 0.054
ATAAAACAAG | 0.99 ± 0.027
CGATGAAGGC | 1.07 ± 0.031
CAGTGGTACG | 1.02 ± 0.065
GGAGGTGGTT | 0.981 ± 0.018
